US11026999B2, “Insulin glargine/lixisenatide fixed ratio formulation” (SANOFI-AVENTIS DEUTSCHLAND GMBH, priority 2013, dated 2021)

How the values were obtained:
[1] = system: type 2 diabetic patients; assay: Premature treatment discontinuation, patient disposition (Example 1); conditions: human, in vivo
Excerpt: During the 24-week study treatment period, 11 (6.8%) combination-treated patients prematurely discontinued the IMP, compared with 3 (1.9%) insulin glargine-treated patients. For combination-treated patients, the most common reasons for treatment discontinuation was “adverse event” (6 patients [3.7%] versus 0 patient in the insulin glargine group) followed by “other reasons” (4 patients [2.5%] versus 2 patients [1.2%] in the insulin glargine group).

[2] = system: type 2 diabetic patients; assay: Lipase, amylase and calcitonin monitoring (Example 1); design: species or system human; conditions: in vivo
Excerpt: Per protocol, any increase in amylase and/or lipase above twice the upper limit of normal range (ULN) or in Calcitonin ≥20 pg/mL that had been confirmed by a repeat measurement was to be monitored and documented on a specific AE form. […] No patients reported a TEAE of increased calcitonin (≥20 pg/mL).
The number of patients who had at least 1 value of lipase or amylase ULN, or at least 1 value of calcitonin ≥20 pg/ml during the on-treatment period was also summarized. One patient in the insulin glargine group had at least 1 value of amylase ≥3 ULN, and 5 patients (4 in the combination group and 1 in the insulin glargine group) had at least 1 value of lipase ≥3 ULN. One patient in the insulin glargine group had 1 value of calcitonin ≥20 pg/ml (but <50 pg/ml) with retested values within the normal range.

[3] = system: type 2 diabetic patients; assay: Injection site reactions and allergic reactions adjudicated by ARAC (Example 1); format: in vivo, human
Excerpt: A total of 6 patients (5 patients in the combination group and 1 patient in the insulin glargine group) experienced injection site reactions (Table 19). None of these reactions were considered serious or severe or led to treatment discontinuation.
A total of 2 patients (1 [0.6%] in each group) reported 6 events positively adjudicated as allergic reactions by the ARAC with the same diagnosis of allergic rhinitis. None was adjudicated as possibly related to the IMP (table 20).

[4] = Body weight (Example 1); format: in vivo, human; conditions: for Body weight change from baseline to Week 24 (LOCF), LS Mean (SE): ANCOVA
Excerpt: (§1) Criteria for Evaluation: • Efficacy: • Primary Endpoint: • Change in HbA1c from baseline to Week 24 • Secondary Endpoints: • Change in 2-hour PPG during meal test from baseline to Week 24 • Change in 2-hour plasma glucose excursion during meal test from baseline to Week 24 • Percentage of patients reaching HbA1c ≤6.5% or <7% at Week 24 • Change in 7-point SMPG profiles from baseline to Week 24 (each time point and mean daily value) • Change in body weight from baseline to Week 24, • Average daily Insulin glargine dose at Week 24 • Change in FPG from baseline to Week 24 • Percentage of patients requiring rescue therapy during the 24-week open-label treatment period • Change in 30-minute and 1-hour PPG and plasma glucose excursion during meal test from baseline to week 24 • Percentage of patients reaching HbA1c <7% at week 24 with no documented symptomatic hypoglycemia during the 24-week open label treatment period • Percentage of patients reaching HbA1c <7% with no weight gain at week 24
(§2) All continuous secondary efficacy endpoints were analyzed using a similar ANCOVA model with treatment, randomization strata of screening HbA1c (<8%, ≥8%), randomization strata of screening BMI (<30 kg/m^2, ≥30 kg/m^2) and country as fixed effects and using the baseline value of the corresponding parameter as a covariate. Insulin glargine dose was not included in the ANCOVA model as a covariate since patients enrolled were insulin-naïve.

[5] = system: type 2 diabetic patients; assay: Fasting plasma glucose (Example 1); format: in vivo, human; conditions: mITT population; for Fasting plasma glucose change from baseline to Week 24 (LOCF), LS Mean (SE): ANCOVA
Excerpt: as §1, §2

[6] = system: type 2 diabetic patients; assay: Symptomatic hypoglycemia (Example 1); format: in vivo, human; conditions: Safety population
Excerpt: Safety: Adverse events, serious adverse events, symptomatic hypoglycemia, vital signs, electrocardiogram (ECG), safety laboratory values.
Symptomatic hypoglycemia events were documented on a specific hypoglycemia event form, and not an AE CRF page, and thus were not included in the TEAE summaries.

[7] = investigator reported terms, Safety population

In the case of “Gly(A21)-Arg(B31)-Arg(B32)-human insulin [Insulin Glargine]”, the “Patients who prematurely discontinued the IMP” value [1] is reported as 3 (1.9%) n (%), the “Treatment discontinuation, reason adverse event” value [1] is reported as 0 n (%) and the “Patients with 1 value of calcitonin ≥20 pg/ml (but <50 pg/ml)” value [2] is reported as “One”. The “Patients with TEAE of amylase increased (>2 ULN) reported on the specific AE form” value [2] was 1 patient, the “Patients with TEAE of lipase increased (>2 ULN) reported on the specific AE form” value [2] was 1 [0.6%] n (%) and the “Patients with at least 1 value of amylase ≥3 ULN” value [2] was “One”. For the same substance, the “Patients with at least 1 value of lipase ≥3 ULN” value [2] was 1 patients, the Injection site reaction ([3]; ARAC diagnosis terms, Safety population) was 0 n (%) and the “Rhinitis allergic (ARAC diagnosis ALLERGIC RHINITIS)” value ([3]; Not related to IMP, Safety population) was 1 (0.6%) n (%). For the same substance, the “Events adjudicated as an allergic reaction by ARAC” value ([3]; Not related to IMP, TEAE period, Safety population) was 1 (0.6%) n (%), the “Any injection site reactions” value ([3]; TEAE period, Safety population) was 1 (0.6%) n (%) and the “Injection site reactions: PTs coded from the ARAC diagnosis terms” value ([3]; TEAE period, Safety population) was 0 n (%). For the same substance, the “Injection site reactions: PTs coded from the investigator reported terms” value ([3]; TEAE period, Safety population) was 1 (0.6%) n (%), the “Patients who experienced injection site reactions” value ([3]; in vivo) was 1 patients and the Injection site pain [3, 7] was 1 (0.6%) n (%). For the same substance, the Injection site pruritus [3, 7] was 0 n (%), the Injection site rash [3, 7] was 0 n (%) and the Injection site urticaria [3, 7] was 0 n (%). The “Rhinitis allergic (ARAC diagnosis ALLERGIC RHINITIS)” value ([3]; relationship to study treatment: All, Safety population) was 1 (0.6%) n (%), the “Events adjudicated as an allergic reaction by ARAC” value ([3]; relationship to study treatment: All, TEAE period, Safety population) was 1 (0.6%) n (%) and the “Body weight at Week 24 (LOCF), Mean (SD)” value ([4]; mITT population) was 92.09 (16.30) kg. For the same substance, the “Body weight at Week 24 (LOCF), Median” value ([4]; mITT population) was 91.00 kg, the “Body weight change from baseline to Week 24 (LOCF), Mean (SD)” value ([4]; mITT population) was 0.39 (2.96) kg and the “Body weight change from baseline to Week 24 (LOCF), Median” value ([4]; mITT population) was 0.35 kg. The “Body weight change from baseline to Week 24 (LOCF), LS Mean (SE)” value ([4]; mITT population) was 0.48 (0.282) kg, the “Body weight change from baseline to Week 24 (LOCF), LS Mean (SE)” value ([4]; mITT population, listed as insulin glargine) was “+0.48 kg” and the “LS mean body weight increase from baseline to week 24” value ([4]; worded as increased by) was 0.48 kg. The “Fasting plasma glucose at Week 24 (LOCF), Mean (SD)” value [5] was 6.20 (1.35) mmol/L, the “Fasting plasma glucose at Week 24 (LOCF), Median” value [5] was 5.95 mmol/L and the “Fasting plasma glucose change from baseline to Week 24 (LOCF), Mean (SD)” value [5] was −3.28 (2.39) mmol/L. The “Fasting plasma glucose change from baseline to Week 24 (LOCF), Median” value [5] was -3.00 mmol/L, the “Fasting plasma glucose change from baseline to Week 24 (LOCF), LS Mean (SE)” value [5] was −3.51 (0.128) mmol/L and the “Fasting plasma glucose change from baseline to Week 24 (LOCF), LS Mean (SE)” value ([5]; listed as insulin glargine) was -3.51 mmol/L. For the same substance, the “Documented symptomatic hypoglycemia (plasma glucose <54 mg/dL [3.0 mmol/L]): Number of events” value [6] was 10, the “Documented symptomatic hypoglycemia (plasma glucose <54 mg/dL [3.0 mmol/L]): Number of events per 100 patient years” value [6] was 13.2 events per 100 patient years and the “Documented symptomatic hypoglycemia (plasma glucose <54 mg/dL [3.0 mmol/L]): Number of patients with events” value [6] was 4 (2.5%) n (%). For the same substance, the “Documented symptomatic hypoglycemia (plasma glucose <60 mg/dL [3.3 mmol/L]): Number of events” value [6] was 18, the “Documented symptomatic hypoglycemia (plasma glucose <60 mg/dL [3.3 mmol/L]): Number of events per 100 patient years” value [6] was 23.8 events per 100 patient years and the “Documented symptomatic hypoglycemia (plasma glucose <60 mg/dL [3.3 mmol/L]): Number of patients with events” value [6] was 9 (5.6%) n (%). For the same substance, the “Documented symptomatic hypoglycemia (plasma glucose <=70 mg/dL [3.9 mmol/L]): Number of events” value [6] was 79, the “Documented symptomatic hypoglycemia (plasma glucose <=70 mg/dL [3.9 mmol/L]): Number of events per 100 patient years” value [6] was 104.5 events per 100 patient years and the “Documented symptomatic hypoglycemia (plasma glucose <=70 mg/dL [3.9 mmol/L]): Number of patients with events” value [6] was 37 (22.8%) n (%). The “Probable symptomatic hypoglycemia: Number of events” value [6] was 5, the “Probable symptomatic hypoglycemia: Number of events per 100 patient years” value [6] was 6.6 events per 100 patient years and the “Probable symptomatic hypoglycemia: Number of patients with events” value [6] was 5 (3.1%) n (%). For the same substance, the “Severe symptomatic hypoglycemia: Number of events” value [6] was 0, the “Severe symptomatic hypoglycemia: Number of events per 100 patient years” value [6] was 0.0 events per 100 patient years and the “Severe symptomatic hypoglycemia: Number of patients with events” value [6] was 0 n (%). The “Symptomatic hypoglycemia: Number of events per 100 patient years” value [6] was 111.1 events per 100 patient years, the “Symptomatic hypoglycemia: Number of events” value ([6]; TEAE period) was 84 and the “Symptomatic hypoglycemia: Number of patients with events” value ([6]; documented, probable and severe, TEAE period) was 40 (24.7%) n (%).
